The results in this text go back to US20260285954.

This experiment addresses Aβ oligomers (Aβ42) (human), P05067. The experiment can be described thus: SPR. As to conditions: remark: other sources report otherwise.

Aβ oligomers (Aβ42) (human), P05067, sequence (P05067 672-713): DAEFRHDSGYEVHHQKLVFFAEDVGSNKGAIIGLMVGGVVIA

B1: 3F (protein)
chain: MAEVQLLESGGGLVQPGGSLRLSCAASGFTFSSYAMSWVRQAPGKGLEWVSGISNLGLTTGYADSVKGRFTISRDNSKNTLYLQMNSLRAEDTAVYYCAKTTSRFDYWGQGTLVTVSSGGGGSGGGGSGGGGSTDIQMTQSPSSLSASVGDRVTITCRASQSISSYLNWYQQKPGKAPKLLIYKASYLQSGVPSRFSGSGSGTDFTLTISSLQPEDFATYYCQNSAVRPVTFGQGTKVEIKR
With B1, the Kd (usually the constant that tells how readily two partners part at equilibrium) turned out to be 0.847 nM.
